Reference: PMC4617720, “Antigenic Characterization of the HCMV gH/gL/gO and Pentamer Cell Entry Complexes Reveals Binding Sites for Potently Neutralizing Human Antibodies” (PLoS Pathogens, 2015)

T1: HCMV glycoprotein H (gH), soluble, terminated at amino acid 715 (human cytomegalovirus (HCMV), Merlin …, UniProt Q6SW67 24-715)
T1 construct: source: 293EBNA cells, transfected with individual plasmids encoding each subunit
T1 sequence: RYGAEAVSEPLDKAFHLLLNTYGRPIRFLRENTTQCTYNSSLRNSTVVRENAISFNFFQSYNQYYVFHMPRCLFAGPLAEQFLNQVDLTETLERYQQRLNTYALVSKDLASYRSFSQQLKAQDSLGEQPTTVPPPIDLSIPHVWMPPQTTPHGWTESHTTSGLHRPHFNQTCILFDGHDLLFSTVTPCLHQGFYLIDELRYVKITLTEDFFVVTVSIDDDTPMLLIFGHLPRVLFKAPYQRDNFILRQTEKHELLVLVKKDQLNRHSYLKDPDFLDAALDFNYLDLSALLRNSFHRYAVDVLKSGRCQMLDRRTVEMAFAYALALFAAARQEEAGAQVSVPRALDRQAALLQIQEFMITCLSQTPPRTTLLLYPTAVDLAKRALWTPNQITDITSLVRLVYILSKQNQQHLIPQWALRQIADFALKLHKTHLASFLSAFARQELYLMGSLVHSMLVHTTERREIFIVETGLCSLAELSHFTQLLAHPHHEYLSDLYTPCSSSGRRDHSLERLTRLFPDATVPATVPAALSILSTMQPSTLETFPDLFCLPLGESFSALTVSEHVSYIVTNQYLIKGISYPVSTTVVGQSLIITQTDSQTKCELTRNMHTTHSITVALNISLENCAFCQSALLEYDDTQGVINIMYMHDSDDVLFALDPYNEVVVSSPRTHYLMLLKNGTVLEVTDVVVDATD

B1: HCMV UL131A-K27R (natural protein)
chain: QCQRETAERNDYYRVPHYWDACSRALPDQTRYKYVEQLVDLTLNYHYDASHGLDNFDVLKRINVTEVSLLISDFRRQNRRGGTNKRTTFNAAGSLAPHARSLEFSVRLFAN
notes: also called UL131A-K27R mutation; source: 293EBNA cells, transfected with individual plasmids encoding each subunit
B2: HCMV UL130 (natural protein)
chain: SPWSTLTANQNPSPPWSKLTYSKPHDAATFYCPFLYPSPPRSPLQFSGFQRVSTGPECRNETLYLLYNREGQTLVERSSTWVKKVIWYLSGRNQTILQRMPRTASKPSDGNVQISVEDAKIFGAHMVPKQTKLLRFVVNDGTRYQMCVMKLESWAHVFRDYSVSFQVRLTFTEANNQTYTFCTHPNLIV
notes: source: 293EBNA cells, transfected with individual plasmids encoding each subunit; not shown: Strep-tag II, C-terminal, kept
B3: HCMV glycoprotein L (gL) (natural protein)
chain: AAVSVAPTAAEKVPAECPELTRRCLLGEVFEGDKYESWLRPLVNVTGRDGPLSQLIRYRPVTPEAANSVLLDEAFLDTLALLYNNPDQLRALLTLLSSDTAPRWMTVMRGYSECGDGSPAVYTCVDDLCRGYDLTRLSYGRSIFTEHVLGFELVPPSLFNVVVAIRNEATRTNRAVRLPVSTAAAPEGITLFYGLYNAVKEFCLRHQLDPPLLRHLDKYYAGLPPELKQTRVNLPAHSRYGPQAVDAR
notes: source: 293EBNA cells, transfected with individual plasmids encoding each subunit

What was measured:
Conditions in all cases: both partners purified
HCMV UL130 = target: B2; experiment: cross-linking; purified unbound Pentamer (with UL131A-K27R), 36 pmol, 600-fold excess of DSSG-d0/d6 (links lysines up to 25 Å apart), 10 mM HEPES pH 7.5, 300 mM NaCl, RT, 30 min; cross-linked peptides identified by LC-MS/MS (xQuest)
[1] = target: T1, HCMV glycoprotein H (gH), soluble, …; experiment: as above
[2] = target: T1, HCMV glycoprotein H (gH), soluble, …; experiment: non-reducing SDS-PAGE with western blot; purified Pentamer, non-boiled and non-reduced (-/-), blotted with rabbit polyclonal anti-Pentamer antibody

Does B1 bind (HCMV UL130)?
Result: binds

Does B2 bind [1]?
Result: binds

Does B3 bind [2]?
Result: binds
